Where a chain is given by its changes, count along the chain named. Numbers in names are those of the source.
Columns and labels:
Abz-GGFLRKHGQ-EDDnp [1] = test: Enzyme activity assay, kinetics of IDE and ATP binding site mutants with fluorogenic substrate; assay type: biochemical; details: Abz-GGFLRKHGQ-EDDnp as substrate
Method: Reactions were conducted in 50 mM Tris-HCl, pH 7.4.
(§1) IDE activity was determined by measuring the increase in fluorescence that occurs when the enzyme cleaves the internally quenched fluorogenic substrate Abz-[…]-EDDnp (SEQ ID NO:3) at the R—K bond (Song et al., Journal of Biologial Chemistry 276, 1152-1155 (2001)). The reaction was followed on a SpectraMax Gemini XS fluorescence plate reader using an excitation and emission wavelengths of 318 nm and 419 nm, respectively. Initial velocities were determined using SoftMax Pro 4.0 and kinetic constants calculated using GraphPad Prism 4.0. ATPase activity was measured by following Pi release with acid-molybdate as described by Harder et al. (Harder et al., Biochemical Journal 298 (Pt 2), 395-401 (1994)).

[2] = TNP-ATP fluorescence measurements, IDE and ATP binding site mutants; details: 1.5 μM enzyme, 10 μM TNP-ATP, λexc=403 nm
Method: Fluorescence emission spectra were recorded on a Perkin-Elmer LS 55 Luminescence spectrometer with 1.5 μM of IDE, IDE^R429S or IDE^K898A,K899A,S901A in 50 mM Tris-HCl, pH 7.4 with 10 μM TNP-ATP. Fluorescence spectra were recorded with a λexc=403 nm.
TNP-ATP [2′,3′-O-(2,4,6-Trinitrophenyl)adenosine-5′-triphosphate] fluorescence was monitored at excitation and emission wavelengths of 403 nm and 547 nm, respectively, using a Perkin-Elmer LS55 Luminescence Spectrometer at 20±0.1° C. TNP-ATP (Molecular Probes, Inc.) as supplied was diluted to 4 mM with 50 mM Tris-HCl, pH 7.4, and added to achieve the indicated concentrations.

Abz-GGFLRKHGQ-EDDnp [3] = test: Activation by ATP of Abz-[…]-EDDnp hydrolysis, IDE and ATP binding site mutants; assay type: biochemical; details: 10 μM Abz-GGFLRKHGQ-EDDnp as substrate
Method: Activity was determined in 50 mM Tris-HCl, pH 7.4 with 10 μM Abz-[…]-EDDnp (SEQ ID NO:3) as substrate at the indicated concentrations of ATP (panel A), PPPi (panel B) or, TNP-ATP (panel C). Each reaction contained 0.5 μg of enzyme.
as §1

Abz-GGFLRKHGQ-EDDnp [4] = test: Activation by ATP, wild type rIDE and distal site mutants; assay type: biochemical; details: 10 μM Abz-GGFLRKHGQ-EDDnp as substrate
Method: (§2) FIG. 17. Effects of distal site mutations. (A) Comparison of the kinetics of wild type IDE with the distal site mutants. Activity was measured with varying amounts of Abz-[…]-EDDnp (SEQ ID NO:3) substrate as indicated. Either hyperbolic (Michaelis-Menten equation) or sigmoidal curves (Hill equation) were fit to the data. (B) Effect of bradykinin on the activity of wild type IDE and the distal site mutants. (C) Activation of wild type IDE and distal site mutants by ATP. Relative activity is the fold activation above the level of the wild type enzyme alone.
(§3) The activity of IDE was measured by following the increase in fluorescence upon hydrolysis at the L-R bond of the fluorogenic peptide Abz-[…]-EDDnp (SEQ ID NO:3) on a SpectraMax Gemini XS fluorescence plate reader using an excitation wavelength of 318 nm and emission wavelength of 419 nm. Reactions were carried out in 200 μl volumes containing 50 mM Tris-HCl, pH 7.4, 1.92 μg of wild type rIDE, 4.6 μg of rIDE-V360S, 4.3 μg rIDE-I374S, or 1.63 μg of rIDE-Y609F. For measurements of activation by bradykinin, IDE activity was determined with 10 μM Abz-[…]-EDDnp (SEQ ID NO:3) as substrate in 50 mM Tris-HCl buffer, pH 7.4. The amount of protein was 0.5 μg for wild type rIDE and 5 μg for each of the IDE distal-site mutants. Data were analyzed using Softmax 4.0 (Molecular Devices) and kinetic parameters calculated with Prism (Graphpad Software). […] Under these assay conditions, both wild type and mutant rIDE are almost completely dimeric.
Fluorescence measurements of TNP-ATP binding were performed on a Perkin-Elmer LS55 Luminescence Spectrometer. Titrations were monitored at an excitation wavelength of 403 nm and emission wavelength of 547 nm. The temperature of the sample was maintained at 20±0.1° C. by circulating thermostatically controlled water through the cuvette holder. […] The fluorescence of TNP-ATP was subtracted from the total fluorescence of enzyme+TNP-ATP to yield specific fluorescence enhancement (ΔF).

[5] = Fluorescence measurements of TNP-ATP binding, wild type rIDE and distal site mutants; details: hyperbolic one site binding fit, 20 °C
Method: The fluorescence increase on binding of (2,4,6-trinitrophenyl)ATP (TNP-ATP) is plotted for the indicated IDE constructs as a function of ligand concentration. Data were fit to a hyperbolic one site binding mechanism.
Fluorescence emission spectra of 10 μM TNP-ATP in […] Tris-HCl, pH7.4, was measured in the presence of 1.5 μM of each wild type IDE and the indicated IDE distal mutants. Fluorescence spectra were recorded with a λexc=403 nm on a Perkin-Elmer LS55 Luminescence Spectrometer.
Fluorescence measurements of TNP-ATP binding were performed on a Perkin-Elmer LS55 Luminescence Spectrometer. Titrations were monitored at an excitation wavelength of 403 nm and emission wavelength of 547 nm. The temperature of the sample was maintained at 20±0.1° C. by circulating thermostatically controlled water through the cuvette holder. Assays were conducted in 200 μL reaction mixtures containing 50 mM Tris-HCl, pH, 7.4, 10 μM Abz-[…]-EDDnp (SEQ ID NO:3) as substrate, and 0.5 μg wild type rIDE, 2.3 μg rIDE-V3605, 2.0 μg rIDE-I3745 or 1.62 μg rIDEY609F and the indicated concentration of ATP. The fluorescence of TNP-ATP was subtracted from the total fluorescence of enzyme+TNP-ATP to yield specific fluorescence enhancement (ΔF).

Abz-GGFLRKHGQ-EDDnp [6] = test: Enzyme activity assay, kinetics of wild type rIDE and distal site mutants with fluorogenic substrate; assay type: biochemical; details: rat IDE, Abz-GGFLRKHGQ-EDDnp as substrate
Method: as §2, §3

B1: IDE^R429S: Rat IDE residues 41-1019 bearing the mutation R429S; ATP binding site mutant (protein, listed as Rattus norvegicus)
chain: MRNGLVWLLHPALPSTLHSILGARPPPVKRLCGFPKQIYSTMNNPAIQRIEDHIVKSPEDKREYRGLELANGIKVLLISDPTTDKSSAALDVHIGSLSDPPNIPGLSHFCEHMLFLGTKKYPKENEYSQFLSEHAGSSNAFTSGEHTNYYFDVSHEHLEGALDRFAQFFLCPLFDASCKDREVNAVDSEHEKNVMNDAWRLFQLEKATGNPKHPFSKFGTGNKYTLETRPNQEGIDVREELLKFHSTYYSSNLMAICVLGRESLDDLTNLVVKLFSEVENKNVPLPEFPEHPFQEEHLKQLYKIVPIKDIRNLYVTFPIPDLQQYYKSNPGHYLGHLIGHEGPGSLLSELKSKGWVNTLVGGQKEGARGFMFFIINVDLTEEGLLHVEDIILHMFQYIQKLRAEGPQEWVFQECKDLNAVAFRFKDKESPRGYTSKIAGKLHYYPLNGVLTAEYLLEEFRPDLIDMVLDKLRPENVRVAIVSKSFEGKTDRTEQWYGTQYKQEAIPEDVIQKWQNADLNGKFKLPTKNEFIPTNFEILALEKDATPYPALIKDTAMSKLWFKQDDKFFLPKACLNFEFFSPFAYVDPLHCNMAYLYLELLKDSLNEYAYAAELAGLSYDLQNTIYGMYLSVKGYNDKQPILLKKITEKMATFEIDKKRFEIIKEAYMRSLNNFRAEQPHQHAMYYLRLLMTEVAWTKDELKEALDDVTLPRLKAFIPQLLSRLHIEALLHGNITKQAALGVMQMVEDTLIEHAHTKPLLPSQLVRYREVQLPDRGWFVYQRRNEVHNNCGIEIYYQTDMQSTSENMFLELFCQIISEPCFNTLRTKEQLGYIVFSGPRRANGIQGLRFIIQSEKPPHYLESRVEAFLITMEKAIEDMTEEAFQKHIQALAIRRLDKPKKLSAECAKYWGEIISQQYNYDRDNIEVAYLKTLSKDDIIKFYKEMLAVDAPRRHKVSVHVLAREMDSCPVVGEFPSQNDINLSEAPPLPQPEVIHNMTEFKRGLPLFPLVKPHINFMAAKL
modifications: wild-type Insulin Degrading Enzyme (IDE) from rat
In the case of B1, the “kcat relative to wild-type IDE” value (Abz-GGFLRKHGQ-EDDnp [1]) is reported as “essentially the same”, the “Hill coefficient” value (Abz-GGFLRKHGQ-EDDnp [1]; rat IDE) is reported as 1.7 ± 0.2 and the Km (Abz-GGFLRKHGQ-EDDnp [1]; rat IDE) is reported as 21.3 ± 2.4 mM. The kcat (Abz-GGFLRKHGQ-EDDnp [1]; rat IDE) was 4.7 ± 0.3 min⁻¹, the Vmax (Abz-GGFLRKHGQ-EDDnp [1]; rat IDE, 50 mM Tris-HCl, pH 7.4) was 42.3 ± 3.2 nmol/min/mg and the “fluorescence associated with TNP-ATP binding, relative to wild type IDE” value [2] was “lower fluorescent yield”. The “level of activation by ATP, of the wild type value” (Abz-GGFLRKHGQ-EDDnp [3]) was “about 15%”.

B2: I374S: Rat IDE distal site mutant I374S (protein, UniProt P35559 1-1019, looked up, variant I374S)
Insulin-degrading enzyme: B1 chain with I374S, S429R
For B2, the ATP activation (Abz-GGFLRKHGQ-EDDnp [4]) was “not significant”, the Kd [5] was 2100 ± 500 nM and the Hill coefficient (Abz-GGFLRKHGQ-EDDnp [6]) was 1.12. The Km (Abz-GGFLRKHGQ-EDDnp [6]) was 8.5 ± 1.74 µM, the Vmax (Abz-GGFLRKHGQ-EDDnp [6]; 50 mM Tris-HCl, pH 7.4) was 3.45 ± 0.22 nmol/min/mg and the Hill coefficient (Abz-GGFLRKHGQ-EDDnp [6]; listed as Ile374Ser) was 1.12 ± 0.2.
